The source of these data is doi:10.1101/2024.02.27.582255 (bioRxiv, 2024).

Ends that are not written are not given here. * marks the point of attachment. For = O=C*

This data set deals with the molecule itself. As to the kind of experiment: ThT fluorescence + TEM.

Take MEFVAKLFKFFKDLLGKFLGNN [deformylated wild-type phenol soluble modulin α3 (df-WT PSMα3)]: the binding result is “binds”.

With For-MEFVAKLFKFFKDLLGKFLGNN [formylated wild-type phenol soluble modulin α3 (f-WT PSMα3)], the binding result is “binds”.
